The values below come from patent US20210317220A1 (Janssen / Centocor, published 2021).

Assay [1] concerns the target T1, rhesus monkey soluble CD154 (rhesus monkey, UniProt P63304 113-261, limits assumed).
T1 construct: Endogenous plasma protein measured in dosed animals; also called sCD154; free sCD154
T1 sequence (looked up): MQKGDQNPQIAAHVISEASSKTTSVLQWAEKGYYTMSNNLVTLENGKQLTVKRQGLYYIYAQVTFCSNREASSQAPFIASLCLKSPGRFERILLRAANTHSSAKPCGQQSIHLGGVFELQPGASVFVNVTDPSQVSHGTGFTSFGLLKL
As to the kind of experiment: free and total sCD154 in platelet poor plasma of rhesus monkeys dosed IV or SC (3-month study). The procedure:
Rhesus monkeys were administered the anti-CD154 antibody C4LB231 intravenously (IV) or subcutaneously (SC) once weekly for 13 weeks. The control vehicle was 0.9% sterile saline (NaCl). Animals were dosed by IV or SC injection as described above for the 8-week study on days 1, 8, 15, 22, 29, 36, 43, 50, 57, 64, 71, 78, and 85 for a total of 13 doses. On days 29, 57, and 155 (recovery study animals only) animals received an intramuscular injection of a 1 mg dose of KLH antigen to the left thigh for a KLH-antigen challenge study. Blood samples were collected from the animals and evaluated as described below.
Free and total soluble CD154 (sCD154) were assessed in platelet poor plasma samples. […] The extent of reduction was greater at the higher dose levels. A dose-dependent decrease in free sCD154 coupled with dose-dependent increase in total sCD154 indicated good target engagement in plasma.

For another assay, the target named is T2, soluble human CD154 (human, UniProt P29965 113-261).
T2 construct: also called sCD154; shCD154
T2 sequence: T1 sequence (looked up)
In words: ELISA of free and total sCD154 in platelet poor plasma of dosed human participants. The procedure:
Mean free and total soluble CD154 (sCD154) concentrations were determined by ELISA in platelet poor plasma samples obtained from the participants administered C4LB231 according to the study described in Example 2. Free sCD154 concentration remained undetectable until 14 days after dosing indicating suppression of the target of […].
For orientation: An ELISA detects its analyte on a solid surface through an enzyme-linked reagent.

B1: anti-CD154 antibody C4LB231 (antibody, human IgG1, kappa, V domains shown)
VH: QVQLVQSGAEVKKPGSSVKVSCKASGGTFSSYGISWVRQAPGQGLEWMGWISPIFGNTNYAQKFQGRVTITADESTSTAYMELSSLRSEDTAVYYCARSRYYGDLDYWGQGTLVTVSS
VL: DIQMTQSPSSLSASVGDRVTITCRASQSISSYLNWYQQKPGKAPKLLIYYANSLQSGVPSRFSGSGSGTDFTLTISSLQPEDFATYYCQQSDSIPWTFGQGTKVEIKR
notes: Human IgG1σ mAb (Fc-silencing mutations L234A, L235A, G237A, P238S, H268A, A330S, P331S); also called C4BL231; C4BL231 (Fc silent)
B1: the binding result (in assay [1]; with soluble human CD154) was “binds” each time.
